Data reported in IntAct's records for PubMed 25910212.

B1: 5-aminolevulinate synthase, erythroid-specific, mitochondrial (Homo sapiens), P22557-2 (parent)
chain: MVTAAMLLQCCPVLARGPTSLLGKVVKTHQFLFGIGRCPILATQGPNCSQIHLKATKAGGDSPSWAKGHCPFMLSELQDGKSKIVQKAAPEVQEDVKAFKTGNYVFSYDQFFRDKIMEKKQDHTYRVFKTVNRWADAYPFAQHFSEASVASKDVSVWCSNDYLGMSRHPQVLQATQETLQRHGAGAGGTRNISGTSKFHVELEQELAELHQKDSALLFSSCFVANDSTLFTLAKILPGCEIYSDAGNHASMIQGIRNSGAAKFVFRHNDPDHLKKLLEKSNPKIPKIVAFETVHSMDGAICPLEELCDVSHQYGALTFVDEVHAVGLYGSRGAGIGERDGIMHKIDIISGTLGKAFGCVGGYIASTRDLVDMVRSYAAGFIFTTSLPPMVLSGALESVRLLKGEEGQALRRAHQRNVKHMRQLLMDRGLPVIPCPSHIIPIRVGNAALNSKLCDLLLSKHGIYVQAINYPTVPRGEELLRLAPSPHHSPQMMEDFVEKLLLAWTAVGLPLQDVSVAACNFCRRPVHFELMSEWERSYFGNMGPQYVTTYA
partner: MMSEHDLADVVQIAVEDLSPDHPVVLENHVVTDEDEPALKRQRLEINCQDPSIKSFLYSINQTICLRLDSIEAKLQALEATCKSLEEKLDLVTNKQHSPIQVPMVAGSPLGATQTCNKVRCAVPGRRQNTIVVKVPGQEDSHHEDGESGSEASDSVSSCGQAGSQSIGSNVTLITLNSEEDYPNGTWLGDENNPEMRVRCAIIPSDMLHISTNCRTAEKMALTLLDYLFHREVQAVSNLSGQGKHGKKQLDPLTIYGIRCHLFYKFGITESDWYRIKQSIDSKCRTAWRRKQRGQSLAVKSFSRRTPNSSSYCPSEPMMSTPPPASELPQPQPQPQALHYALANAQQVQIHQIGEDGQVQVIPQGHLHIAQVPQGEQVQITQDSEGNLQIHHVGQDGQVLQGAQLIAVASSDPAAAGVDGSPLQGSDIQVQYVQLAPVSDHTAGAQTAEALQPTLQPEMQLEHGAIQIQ
B2: Sulfotransferase 2B1 (Homo sapiens), O00204 (parent)
chain: MDGPAEPQIPGLWDTYEDDISEISQKLPGEYFRYKGVPFPVGLYSLESISLAENTQDVRDDDIFIITYPKSGTTWMIEIICLILKEGDPSWIRSVPIWERAPWCETIVGAFSLPDQYSPRLMSSHLPIQIFTKAFFSSKAKVIYMGRNPRDVVVSLYHYSKIAGQLKDPGTPDQFLRDFLKGEVQFGSWFDHIKGWLRMKGKDNFLFITYEELQQDLQGSVERICGFLGRPLGKEALGSVVAHSTFSAMKANTMSNYTLLPPSLLDHRRGAFLRKGVCGDWKNHFTVAQSEAFDRAYRKQMRGMPTFPWDEDPEEDGSPDPEPSPEPEPKPSLEPNTSLEREPRPNSSPSPSPGQASETPHPRPS
B3: NADH dehydrogenase [ubiquinone] 1 alpha subcomplex assembly factor 4 (Homo sapiens), Q9P032 (parent)
chain: MGALVIRGIRNFNLENRAEREISKMKPSVAPRHPSTNSLLREQISLYPEVKGEIARKDEKLLSFLKDVYVDSKDPVSSLQVKAAETCQEPKEFRLPKDHHFDMINIKSIPKGKISIVEALTLLNNHKLFPETWTAEKIMQEYQLEQKDVNSLLKYFVTFEVEIFPPEDKKAIRSK
B4: Emerin (Homo sapiens), P50402 (parent)
chain: MDNYADLSDTELTTLLRRYNIPHGPVVGSTRRLYEKKIFEYETQRRRLSPPSSSAASSYSFSDLNSTRGDADMYDLPKKEDALLYQSKGYNDDYYEESYFTTRTYGEPESAGPSRAVRQSVTSFPDADAFHHQVHDDDLLSSSEEECKDRERPMYGRDSAYQSITHYRPVSASRSSLDLSYYPTSSSTSFMSSSSSSSSWLTRRAIRPENRAPGAGLGQDRQVPLWGQLLLFLVFVIVLFFIYHFMQAEEGNPF
partner: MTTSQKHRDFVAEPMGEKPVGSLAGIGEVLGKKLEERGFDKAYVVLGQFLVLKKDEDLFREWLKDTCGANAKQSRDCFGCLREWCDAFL
B5: Carbonic anhydrase-related protein (Homo sapiens), P35219 (parent)
chain: MADLSFIEDTVAFPEKEEDEEEEEEGVEWGYEEGVEWGLVFPDANGEYQSPINLNSREARYDPSLLDVRLSPNYVVCRDCEVTNDGHTIQVILKSKSVLSGGPLPQGHEFELYEVRFHWGRENQRGSEHTVNFKAFPMELHLIHWNSTLFGSIDEAVGKPHGIAIIALFVQIGKEHVGLKAVTEILQDIQYKGKSKTIPCFNPNTLLPDPLLRDYWVYEGSLTIPPCSEGVTWILFRYPLTISQLQIEEFRRLRTHVKGAELVEGCDGILGDNFRPTQPLSDRVIRAAFQ
partner: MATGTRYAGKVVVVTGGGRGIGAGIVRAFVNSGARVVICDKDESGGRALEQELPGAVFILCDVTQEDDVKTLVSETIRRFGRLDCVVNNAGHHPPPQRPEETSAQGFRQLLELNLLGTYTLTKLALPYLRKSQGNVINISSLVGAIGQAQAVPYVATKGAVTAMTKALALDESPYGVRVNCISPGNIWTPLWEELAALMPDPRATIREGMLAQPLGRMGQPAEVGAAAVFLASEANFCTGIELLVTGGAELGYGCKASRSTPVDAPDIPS
B6: Three-prime repair exonuclease 1 (Homo sapiens), Q9NSU2-1 (parent)
chain: MGPGARRQGRIVQGRPEMCFCPPPTPLPPLRILTLGTHTPTPCSSPGSAAGTYPTMGSQALPPGPMQTLIFFDMEATGLPFSQPKVTELCLLAVHRCALESPPTSQGPPPTVPPPPRVVDKLSLCVAPGKACSPAASEITGLSTAVLAAHGRQCFDDNLANLLLAFLRRQPQPWCLVAHNGDRYDFPLLQAELAMLGLTSALDGAFCVDSITALKALERASSPSEHGPRKSYSLGSIYTRLYGQSPPDSHTAEGDVLALLSICQWRPQALLRWVDAHARPFGTIRPMYGVTASARTKPRPSAVTTTAHLATTRNTSPSLGESRGTKDLPPVKDPGALSREGLLAPLGLLAILTLAVATLYGLSLATPGE
partner: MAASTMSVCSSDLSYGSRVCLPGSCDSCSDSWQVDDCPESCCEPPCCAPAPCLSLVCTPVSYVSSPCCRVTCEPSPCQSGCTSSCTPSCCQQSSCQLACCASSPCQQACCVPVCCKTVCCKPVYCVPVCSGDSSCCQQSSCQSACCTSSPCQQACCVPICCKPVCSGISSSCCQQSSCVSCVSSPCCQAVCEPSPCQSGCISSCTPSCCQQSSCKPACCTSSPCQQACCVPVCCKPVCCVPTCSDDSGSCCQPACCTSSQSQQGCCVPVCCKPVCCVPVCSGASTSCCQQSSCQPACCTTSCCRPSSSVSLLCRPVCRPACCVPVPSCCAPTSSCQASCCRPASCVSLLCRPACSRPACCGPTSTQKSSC
B7: Phytanoyl-CoA dioxygenase, peroxisomal (Homo sapiens), O14832 (parent)
chain: MEQLRAAARLQIVLGHLGRPSAGAVVAHPTSGTISSASFHPQQFQYTLDNNVLTLEQRKFYEENGFLVIKNLVPDADIQRFRNEFEKICRKEVKPLGLTVMRDVTISKSEYAPSEKMITKVQDFQEDKELFRYCTLPEILKYVECFTGPNIMAMHTMLINKPPDSGKKTSRHPLHQDLHYFPFRPSDLIVCAWTAMEHISRNNGCLVVLPGTHKGSLKPHDYPKWEGGVNKMFHGIQDYEENKARVHLVMEKGDTVFFHPLLIHGSGQNKTQGFRKAISCHFASADCHYIDVKGTSQENIEKEVVGIAHKFFGAENSVNLKDIWMFRARLVKGERTNL
B8: Sialidase-2 (Homo sapiens), Q9Y3R4 (parent)
chain: MASLPVLQKESVFQSGAHAYRIPALLYLPGQQSLLAFAEQRASKKDEHAELIVLRRGDYDAPTHQVQWQAQEVVAQARLDGHRSMNPCPLYDAQTGTLFLFFIAIPGQVTEQQQLQTRANVTRLCQVTSTDHGRTWSSPRDLTDAAIGPAYREWSTFAVGPGHCLQLHDRARSLVVPAYAYRKLHPIQRPIPSAFCFLSHDHGRTWARGHFVAQDTLECQVAEVETGEQRVVTLNARSHLRARVQAQSTNDGLDFQESQLVKKLVEPPPQGCQGSVISFPSPRSGPGSPAQWLLYTHPTHSWQRADLGAYLNPRPPAPEAWSEPVLLAKGSCAYSDLQSMGTGPDGSPLFGCLYEANDYEEIVFLMFTLKQAFPAEYLPQ
B9: Ubiquitin-protein ligase (Homo sapiens), Q05086 (parent)
chain: MEKLHQCYWKSGEPQSDDIEASRMKRAAAKHLIERYYHQLTEGCGNEACTNEFCASCPTFLRMDNNAAAIKALELYKINAKLCDPHPSKKGASSAYLENSKGAPNNSCSEIKMNKKGARIDFKDVTYLTEEKVYEILELCREREDYSPLIRVIGRVFSSAEALVQSFRKVKQHTKEELKSLQAKDEDKDEDEKEKAACSAAAMEEDSEASSSRIGDSSQGDNNLQKLGPDDVSVDIDAIRRVYTRLLSNEKIETAFLNALVYLSPNVECDLTYHNVYSRDPNYLNLFIIVMENRNLHSPEYLEMALPLFCKAMSKLPLAAQGKLIRLWSKYNADQIRRMMETFQQLITYKVISNEFNSRNLVNDDDAIVAASKCLKMVYYANVVGGEVDTNHNEEDDEEPIPESSELTLQELLGEERRNKKGPRVDPLETELGVKTLDCRKPLIPFEEFINEPLNEVLEMDKDYTFFKVETENKFSFMTCPFILNAVTKNLGLYYDNRIRMYSERRITVLYSLVQGQQLNPYLRLKVRRDHIIDDALVRLEMIAMENPADLKKQLYVEFEGEQGVDEGGVSKEFFQLVVEEIFNPDIGMFTYDESTKLFWFNPSSFETEGQFTLIGIVLGLAIYNNCILDVHFPMVVYRKLMGKKGTFRDLGDSHPVLYQSLKDLLEYEGNVEDDMMITFQISQTDLFGNPMMYDLKENGDKIPITNENRKEFVNLYSDYILNKSVEKQFKAFRRGFHMVTNESPLKYLFRPEEIELLICGSRNLDFQALEETTEYDGGYTRDSVLIREFWEIVHSFTDEQKRLFLQFTTGTDRAPVGGLGKLKMIIAKNGPDTERLPTSHTCFNVLLLPEYSSKEKLKERLLKAITYAKGFGML
partner: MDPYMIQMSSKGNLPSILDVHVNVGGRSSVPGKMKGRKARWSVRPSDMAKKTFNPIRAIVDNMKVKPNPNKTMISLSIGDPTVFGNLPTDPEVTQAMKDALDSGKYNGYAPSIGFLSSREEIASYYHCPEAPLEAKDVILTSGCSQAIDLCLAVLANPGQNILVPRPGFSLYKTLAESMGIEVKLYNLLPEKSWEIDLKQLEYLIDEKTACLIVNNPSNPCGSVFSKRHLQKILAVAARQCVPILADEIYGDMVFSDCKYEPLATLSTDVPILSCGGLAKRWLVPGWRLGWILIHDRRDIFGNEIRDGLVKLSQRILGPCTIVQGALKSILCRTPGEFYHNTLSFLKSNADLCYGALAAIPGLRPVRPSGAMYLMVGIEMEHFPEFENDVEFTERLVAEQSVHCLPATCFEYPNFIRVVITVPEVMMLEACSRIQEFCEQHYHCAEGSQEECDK

Variants of: B1
Conditions: with BANP

effect of a mutation on the interaction | Variant
with no effect | R133H

Variants of: B2
Conditions: with st1b1_human SULT1B1, O43704
Sequence of st1b1_human SULT1B1, O43704 (O43704 whole entry): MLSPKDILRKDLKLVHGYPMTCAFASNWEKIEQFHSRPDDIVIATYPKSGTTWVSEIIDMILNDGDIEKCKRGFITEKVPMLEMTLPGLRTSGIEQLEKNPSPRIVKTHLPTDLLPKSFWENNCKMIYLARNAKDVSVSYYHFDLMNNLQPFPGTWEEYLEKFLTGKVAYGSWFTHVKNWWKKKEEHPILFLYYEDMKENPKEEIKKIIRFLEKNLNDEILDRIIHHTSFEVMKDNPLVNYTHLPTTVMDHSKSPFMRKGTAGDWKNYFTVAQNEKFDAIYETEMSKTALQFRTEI

effect of a mutation on the interaction | Variant
with no effect | R230H
with no effect | D191N

Variants of: B2
Conditions: with st1a1_human SULT1A1, P50225
Sequence of st1a1_human SULT1A1, P50225 (P50225 whole entry, looked up): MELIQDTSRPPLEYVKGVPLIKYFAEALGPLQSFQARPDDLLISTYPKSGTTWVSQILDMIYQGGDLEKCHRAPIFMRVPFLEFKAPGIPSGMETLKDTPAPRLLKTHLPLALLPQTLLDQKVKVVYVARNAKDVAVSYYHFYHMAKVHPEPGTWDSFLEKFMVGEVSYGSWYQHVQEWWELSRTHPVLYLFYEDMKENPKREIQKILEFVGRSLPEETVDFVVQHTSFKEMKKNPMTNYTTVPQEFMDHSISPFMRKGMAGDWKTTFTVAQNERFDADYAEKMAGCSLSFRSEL

effect of a mutation on the interaction | Variant
with no effect | R230H
with no effect | D191N

Variants of: B3
Conditions: with NDUFAF3, Q9BU61-2
Sequence of NDUFAF3, Q9BU61-2 (Q9BU61 58-184): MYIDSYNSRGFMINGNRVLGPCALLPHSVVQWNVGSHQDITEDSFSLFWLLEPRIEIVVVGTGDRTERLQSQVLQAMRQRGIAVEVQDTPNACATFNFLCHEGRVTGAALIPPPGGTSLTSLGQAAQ

effect of a mutation on the interaction | Variant
with no effect | L65P

Variants of: B4
Conditions: with baf_human BANF1, O75531

effect of a mutation on the interaction | Variant
with no effect | P183H
with no effect | P183T
with no effect | S54F
with no effect | D72V

Variants of: B5
Conditions: with dhb14_human HSD17B14, Q9BPX1

effect of a mutation on the interaction | Variant
disrupting interaction strength | S100P

Variants of: B6
Conditions: with kr107_human KRTAP10-7, P60409

effect of a mutation on the interaction | Variant
with no effect | R169H
with no effect | A213V
with no effect | G361A

Variants of: B7
Conditions: with fam9b_human FAM9B

effect of a mutation on the interaction | Variant
disrupting interaction strength | N83Y
with no effect | N269H
disrupting interaction strength | I199F
with no effect | P29S

Variants of: B8
Conditions: with nt2na_human NOTCH2NLA

effect of a mutation on the interaction | Variant
with no effect | R41Q

Variants of: B9
Conditions: with atty_human TAT

effect of a mutation on the interaction | Variant
disrupting interaction strength | I827K
